{"source": "FireProtDB", "key": {"[1]": {"conditions": "Homo sapiens, pH 7.4, Thermal, CD, phosphate 10 mM, NaCl 10 mM, transition: 2, structure 2NLU"}, "[2]": {"conditions": "Homo sapiens, pH 7.5, Thermal, DSF, Hepes 25mM, NaCl 150mM, structure 6DLO"}, "[3]": {"conditions": "Homo sapiens, pH 7.5, Thermal, CD, HEPES 0.8mM, NaCl 6mM, transition: 2, structure 6EW2"}, "[4]": {"conditions": "Cyprinus carpio, pH 7.5, Thermal, CD, Sodium phosphate 10 mM, CaCl2 0.00001 M"}, "[5]": {"conditions": "Escherichia coli (strain K12), pH 7, 30 °C, Urea, CD, Potassium phosphate 10 mM"}, "[6]": {"conditions": "Escherichia coli (strain K12), pH 7.5, Thermal, CD, Potassium phosphate 10 mM, reversible: yes, structure 1EZA"}, "[7]": {"conditions": "Escherichia coli (strain K12), pH 7.5, Thermal, DSC, Potassium phosphate 10 mM, reversible: yes, structure 1EZA"}, "[8]": {"conditions": "Bos taurus, pH 8, Thermal, DSC, Tris-HCl 10 mM, NaCl 200 mM, reversible: yes"}}, "note": "Several values for one entry are separate records, joined by “and”; a condition that tells them apart may be missing. Identical values can stand only once."}
{"substance": "Hepatoma-derived growth factor P24A, P51858", "values": [{"measurement": "Tm", "setting": "[1]", "value": 40, "unit": "°C"}, {"measurement": "change of melting temperature, mutant - wild type (higher = more stable)", "setting": "[1]", "value": -7, "unit": "°C"}]}
{"substance": "Hepatoma-derived growth factor wild type, P51858", "values": [{"measurement": "Tm", "setting": "Homo sapiens, pH 7.4, Thermal, CD, phosphate 10 mM, NaCl 10 mM, transition: 2", "value": 47, "unit": "°C"}]}
{"substance": "Leucine-rich repeat serine/threonine-protein kinase 2, Q5S007 G2385R", "values": [{"measurement": "Tm", "setting": "[2]", "value": 31.3, "unit": "°C"}, {"measurement": "change of melting temperature, mutant - wild type (higher = more stable)", "setting": "[2]", "value": 0.33, "unit": "°C"}]}
{"substance": "Myelin P2 protein (from UniProt P02689) I52T", "values": [{"measurement": "change of melting temperature, mutant - wild type (higher = more stable)", "setting": "[3]", "value": -13, "unit": "°C"}, {"measurement": "ddG of mutation (higher = less stable)", "setting": "[3]", "value": 5.17, "unit": "kcal/mol"}]}
{"substance": "Myelin P2 protein (from UniProt P02689) T51P", "values": [{"measurement": "change of melting temperature, mutant - wild type (higher = more stable)", "setting": "[3]", "value": -24, "unit": "°C"}, {"measurement": "ddG of mutation (higher = less stable)", "setting": "[3]", "value": 1.51, "unit": "kcal/mol"}]}
{"substance": "Parvalbumin beta wild type, P02618", "values": [{"measurement": "Tm", "setting": "[4]", "value": 90, "unit": "°C"}, {"measurement": "heat capacity change of unfolding", "setting": "[4]", "value": 1.1, "unit": "kcal/mol/K"}, {"measurement": "unfolding enthalpy (calorimetric)", "setting": "[4]", "value": 120, "unit": "kcal/mol"}, {"measurement": "Tm", "setting": "Cyprinus carpio, pH 7.5, Thermal, CD, Sodium phosphate 10 mM, EDTA 5 mM", "value": 32, "unit": "°C"}, {"measurement": "Tm", "setting": "Cyprinus carpio, pH 7.5, Thermal, CD, Sodium phosphate 10 mM, NaCl 2 M", "value": 55, "unit": "°C"}]}
{"substance": "Phosphocarrier protein HPr wild type, P0AA04", "values": [{"measurement": "denaturant m value", "setting": "[5]", "value": 1.06, "unit": "kcal/mol/M"}, {"measurement": "denaturant midpoint (higher = more stable)", "setting": "[5]", "value": 4.34, "unit": "M"}, {"measurement": "unfolding free energy", "setting": "Escherichia coli (strain K12), pH 7, 30 °C, Urea, CD, Potassium phosphate 50 mM, reversible: yes", "value": 4.95, "unit": "kcal/mol"}, {"measurement": "Tm", "setting": "Escherichia coli (strain K12), pH 7, Thermal, CD, Potassium phosphate 10 mM", "value": 30, "unit": "°C"}]}
{"substance": "Phosphoenolpyruvate-protein phosphotransferase H189A, P08839", "values": [{"measurement": "Tm", "setting": "[6]", "value": 54, "unit": "°C"}, {"measurement": "unfolding enthalpy (van 't Hoff)", "setting": "[6]", "value": 118, "unit": "kcal/mol"}, {"measurement": "Tm", "setting": "[7]", "value": 55.8, "unit": "°C"}, {"measurement": "unfolding enthalpy (calorimetric)", "setting": "[7]", "value": 143, "unit": "kcal/mol"}]}
{"substance": "Phosphoenolpyruvate-protein phosphotransferase H189E, P08839", "values": [{"measurement": "Tm", "setting": "[6]", "value": 52.1, "unit": "°C"}, {"measurement": "unfolding enthalpy (van 't Hoff)", "setting": "[6]", "value": 128, "unit": "kcal/mol"}, {"measurement": "Tm", "setting": "[7]", "value": 53.7, "unit": "°C"}, {"measurement": "unfolding enthalpy (calorimetric)", "setting": "[7]", "value": 135, "unit": "kcal/mol"}]}
{"substance": "QQHADPICNKPCKTHDDCSGAWFCQACWNSARTCGPYVG [Metallocarboxypeptidase inhibitor wild type]", "values": [{"measurement": "denaturant midpoint (higher = more stable)", "setting": "Solanum tuberosum, pH 8.4, 23 °C, GdnHCl, Fluorescence, Tris-HCl 0.1 M, whole UniProt chain shown", "value": 1.45, "unit": "M"}, {"measurement": "denaturant midpoint (higher = more stable)", "setting": "Solanum tuberosum, pH 8.4, 23 °C, GdnSCN, Fluorescence, Tris-HCl 0.1 M, whole UniProt chain shown", "value": 0.7, "unit": "M"}]}
{"substance": "Superoxide dismutase [Cu-Zn] wild type, P00442", "values": [{"measurement": "Tm", "setting": "Bos taurus, pH 7.8, Thermal, DSC, Potassium phosphate 100 mM, reversible: no (32%)", "value": 88.3, "unit": "°C"}, {"measurement": "Tm", "setting": "[8]", "value": 59.9, "unit": "°C"}, {"measurement": "unfolding enthalpy (calorimetric)", "setting": "[8]", "value": 152, "unit": "kcal/mol"}]}
{"substance": "Tropomyosin alpha-1 chain wild type, P04268", "values": [{"measurement": "unfolding free energy", "setting": "Gallus gallus, pH 7, 39 °C, Thermal, CD, Sodium phosphate 10 mM, NaCl 0.5 M, reversible: yes", "value": "9 kcal/mol and 12.4 kcal/mol and 9.6 kcal/mol"}, {"measurement": "unfolding enthalpy (van 't Hoff)", "setting": "Gallus gallus, pH 7, Thermal, CD, Sodium phosphate 10 mM, NaCl 0.5 M, reversible: yes", "value": "162 kcal/mol and 225 kcal/mol and 98 kcal/mol"}]}
